Conditions: Homo sapiens; pH 2.7; Thermal; DSC; glycine 0.05 M; reversible: yes; whole UniProt chain shown

B1: Lysozyme C wild type, P61626 (protein)
chain: MKALIVLGLVLLSVTVQGKVFERCELARTLKRLGMDGYRGISLANWMCLAKWESGYNTRATNYNAGDRSTDYGIFQINSRYWCNDGKTPGAVNACHLSCSALLQDNIADAVACAKRVVRDPQGIRAWVAWRNRCQNRDVRQYVQGCGV
- Tm: 64.9 °C
- heat capacity change of unfolding: 1.58 kcal/mol/K
- unfolding enthalpy (calorimetric): 114 kcal/mol
- unfolding enthalpy (van 't Hoff): 120 kcal/mol
